This is an account of results in PMC5506826.

Conditions in all cases: EMSA: 40 mM Tris-HCl pH 8, 100 mM KCl, 0.5 mM DTT, 0.05% NP40, 2 mM spermidine, 0.2 mM EDTA, 8% glycerol, 15 ng/ul herring sperm DNA, 30 min room temperature …
The subject of data set [1] is T1, 6His-SUMO-RegA (Acidithiobacillus ferrooxidans ATCC 23270T), ORF:158a6978.
T1 sequence: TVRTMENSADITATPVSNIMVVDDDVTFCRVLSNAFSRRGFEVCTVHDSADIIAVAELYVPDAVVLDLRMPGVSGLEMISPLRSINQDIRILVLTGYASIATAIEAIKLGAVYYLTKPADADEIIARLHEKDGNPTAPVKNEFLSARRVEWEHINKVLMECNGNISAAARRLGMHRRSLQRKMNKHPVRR
Nature of the data set: EMSA. Background: In EMSA bound probe runs differently from free probe, usually more slowly.

Data set [2] has the same test system. Nature of the data set: DLS.
The test system of data set [3] is T2, RegA-HTH-6His (Acidithiobacillus ferrooxidans ATCC 23270T), ORF:158a6978.
T2 sequence: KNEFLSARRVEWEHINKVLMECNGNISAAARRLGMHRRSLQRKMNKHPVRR
Nature of the data set: EMSA.

For the sequence “TGTCAGTTTTTGGGACATTTTAGTGATCGCGGCATATAATTAAAAGGCCAGATTAACATGTTTAAATAACGTTAGCACATAATTCTTTTCTTATGTTCTTTATTTAAGTTATTGTGTTTTAGTGGATCCGTATCGTGATG (double strand) [rus PI 140 bp]”, the binding entry in data set [1] was “binds”.

In the case of “CATTATGCGGCTGGCACAATACATGCATAAAACATCTCGTGCTGCCGCGGGATTCTCATTTTCATTTACTCATTGAATATCATAAGCGGGATGCAGCCATAAATATAACGCTGGTTGTGTTATTGGGAGCGAGCATTTAATTCTGTTGATATCGTTTATGGGAATAACAAAAGTGGAGACGCAGCTGAAAAAGCGAAGCTGATGACAGAGTACGTTATACCTCACCAAATGGATTGGAGACTTGATATGCC (double strand) [tet 251 bp]”, the binding result in data set [1] is reported as “binds”.

With “CCCCAGTCATGAAGCCTACCGTGGTAATCGCCCCCCTTGCGGTTAAGCTAACTACTTCTGGTAAACCCCACTTCCATGGTGTGACGGGCGGTGTG (double strand) [rrs 16S 95 bp]”, the binding entry in data set [2] and in data set [3] was “no binding” throughout.
